Results: doi:10.1101/2025.01.05.631328 (bioRxiv, 2025)
Several values for one entry are separate records, joined by “and”; a condition that tells them apart may be missing. Equal entries are not always repeated.

Molecular target: the molecule itself
Test: cross-linking

B1: MISO-Flag (human C3orf33, long isoform), in U2OS cells (natural protein, UniProt Q6P1S2 1-294, looked up)
chain: MAGQPAATGSPSADKDGMEPNVVARISQWADDHLRLVRNISTGMAIAGIMLLLRSIRLTSKFTSSSDIPVEFIRRNVKLRGRLRRITENGLEIEHIPITLPIIASLRKEPRGALLVKLAGVELAETGKAWLQKELKPSQLLWFQLLGKENSALFCYLLVSKGGYFSVNLNEEILRRGLGKTVLVKGLKYDSKIYWTVHRNLLKAELTALKKGEGIWKEDSEKESYLEKFKDSWREIWKKDSFLKTTGSDFSLKKESYYEKLKRTYEIWKDNMNNCSLILKFRELISRINFRRKG
stoichiometry N: 2 and 3
